Earlier results on one substance are cited in publication PMC5437010.

In the series the target is factor XIa (Homo sapiens) (UniProt P03951).
UniProt P03951, sequence (P03951 388-625): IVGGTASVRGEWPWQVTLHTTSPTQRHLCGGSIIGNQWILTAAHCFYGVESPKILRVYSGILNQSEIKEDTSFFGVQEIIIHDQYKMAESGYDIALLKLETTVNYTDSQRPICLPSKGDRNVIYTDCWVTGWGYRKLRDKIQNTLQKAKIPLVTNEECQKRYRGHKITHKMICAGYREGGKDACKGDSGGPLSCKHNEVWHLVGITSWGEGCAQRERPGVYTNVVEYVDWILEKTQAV

On to KPI KPI (from UniProt P05067), for which the Ki – broadly, the equilibrium dissociation constant of an inhibitor or competing ligand from its target – is 400 pM.
